Experimental data reported in US20200123270A1 (Astellas, published 2020).

Columns and labels:
[1] = biological target: human CEACAM5 (R&D Systems, Inc.), biotinylated (human) (UniProt P06731); assay: SPR (Biacore T200), biotinylated human CEACAM5 captured on chip, Fab as analyte
[2] = biological target: human CEACAM5 (R&D Systems, Inc.), biotinylated (human) (UniProt P06731); assay: SPR (Biacore T200), biotinylated human CEACAM5 captured on chip, Fab conjugate as analyte
[3] = biological target: T1, human CEACAM5 (R&D Systems, Inc.), biotinylated (human, UniProt P06731 35-685, biotinylated with Biotin Labeling Kit-NH2; sites not stated); assay: SPR (Biacore T200), biotinylated human CEACAM5 captured on chip, Fab as analyte
T1 construct: Bought protein, biotinylated and captured on the sensor chip with the Biotin CAPture Kit
T1 sequence (looked up): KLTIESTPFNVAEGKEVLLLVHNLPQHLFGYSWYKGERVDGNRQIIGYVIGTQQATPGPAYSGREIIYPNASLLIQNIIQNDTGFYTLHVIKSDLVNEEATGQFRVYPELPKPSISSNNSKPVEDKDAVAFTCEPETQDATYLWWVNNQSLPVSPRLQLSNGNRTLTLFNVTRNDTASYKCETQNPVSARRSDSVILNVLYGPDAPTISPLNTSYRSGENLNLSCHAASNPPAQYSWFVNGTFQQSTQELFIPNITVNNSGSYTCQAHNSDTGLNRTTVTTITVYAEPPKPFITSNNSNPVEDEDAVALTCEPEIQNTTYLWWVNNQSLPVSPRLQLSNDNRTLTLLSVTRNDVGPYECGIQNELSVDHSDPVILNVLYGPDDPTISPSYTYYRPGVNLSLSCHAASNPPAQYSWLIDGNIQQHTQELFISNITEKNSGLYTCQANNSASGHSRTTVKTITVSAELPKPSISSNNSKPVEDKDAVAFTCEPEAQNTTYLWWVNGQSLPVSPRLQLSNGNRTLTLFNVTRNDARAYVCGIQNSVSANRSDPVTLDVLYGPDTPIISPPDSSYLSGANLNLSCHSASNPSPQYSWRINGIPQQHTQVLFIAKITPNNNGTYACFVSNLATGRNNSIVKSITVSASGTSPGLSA
Description: (§1) The analysis by SPR was conducted using Biacore T200 (GE Healthcare Japan Corp.). 10 μg/mL human CEACAM5 (R&D Systems, Inc.) biotinylated with Biotin CAPture Kit, Series S (GE Healthcare Japan Corp.) and Biotin Labeling Kit-NH₂ (Dojindo Laboratories) was added to the surface of the sensor chip at a flow rate of 5 μL/min for 2 minutes, and immobilized thereonto. PB009-01, PB009-02, M5A-Fab and M5A-Fab-DFO were diluted with HBS-EP+ solution (GE Healthcare Japan Corp.) into 6 series at a 2-fold ratio from 400 nM, and 100 μL each was added to the channel at a flow rate of 50 μL/min. In this measurement system, the dissociation constant (KD) of PB009-01, PB009-02, M5A-Fab or M5A-Fab-DFO for human CEACAM5 was calculated using data analysis software (BIA Evaluation, GE Healthcare Japan Corp.). As a result, as shown in the table given below, the binding activity of M5A-Fab was attenuated by the binding of DFO, whereas the binding activity of PB009-01 was not attenuated by the binding of DFO.

[4] = biological target: T1, human CEACAM5 (R&D Systems, Inc.), …; assay: SPR (Biacore T200), biotinylated human CEACAM5 captured on chip, Fab conjugate as analyte
Description: In order to measure the detailed binding activity of PB009-02, analysis was conducted by SPR. In this Example, a Fab fragment of M5A (referred to as M5A-Fab), a humanized antibody of T84.66, was used as a comparative Fab fragment. M5A-Fab bound to DFO via a linker (referred to as M5A-Fab-DFO) was prepared by use of the method described in Example 2.
as §1

Molecule: Fab fragment of M5A, a humanized antibody of T84.66
- Kd [1]: 0.16 nM

Molecule: M5A-Fab bound to DFO via a linker
- Kd [2]: 9.6 nM

B1: anti-human CEACAM5 antibody Fab fragment PB009-01 (Fab, V domains shown)
VH: EVQLVESGGGLVQPGGSLRLSCAASGFNIRDTYMHWVRQAPGKGLEWVARIDPANGNSRYVPKFQGRFTISADTSRNTAYLQMNSLRAEDTAVYYCAPFGYYVSDYAMAYWGQGTLVTVSS
VL: DIQLTQSPSSLSASVGDRVTITCRAGESVDIFGVGFLHWYQQKPGKAPKLLIYRASNLESGIPSRFSGSGSRTDFTLTISSLQPEDFATYYCQQTNEDPYTFGQGTKVEIKR
notes: Humanized and redesigned from mouse anti-human CEACAM5 antibody T84.66
- Kd [3]: 0.17 nM

B2: PB009-02 (Fab fragment PB009-01 bound to DFO via a linker) (Fab, V domains shown)
VH: EVQLVESGGGLVQPGGSLRLSCAASGFNIRDTYMHWVRQAPGKGLEWVARIDPANGNSRYVPKFQGRFTISADTSRNTAYLQMNSLRAEDTAVYYCAPFGYYVSDYAMAYWGQGTLVTVSS
VL: DIQLTQSPSSLSASVGDRVTITCRAGESVDIFGVGFLHWYQQKPGKAPKLLIYRASNLESGIPSRFSGSGSRTDFTLTISSLQPEDFATYYCQQTNEDPYTFGQGTKVEIKR
modifications: DFO bound via linker -C(=S)-NH-(1,4-phenylene)-NH-C(=S)- (from p-SCN-Bn-DFO); at least 3 to 10 DFO ligands per Fab by mass spectrometry; modified residues and their split between the chains not …
notes: Chemical conjugate of PB009-01 with the chelator DFO
- Kd [4]: 0.61 nM
